Measurements: patent US20110189209A1 (GOVERNMENT OF THE UNITED STATES OF AMERICA AS REPRESENTED …, published 2011)

What was measured:
[1] = molecular target: human CD3 on Jurkat cells (human) (UniProt P07766); test: competitive binding on Jurkat cells, competitor at 1 nM, tracer 125I-UCHT1
[2] = molecular target: human CD3 on Jurkat cells (human) (UniProt P07766); test: competitive binding on Jurkat cells, competitor at 100 nM, tracer 125I-UCHT1
[3] = molecular target: T1, monkey CD3 on HSC-F monkey T cells (cynomolgus monkey, UniProt Q95LI5 22-198); test: competition with FN18-FITC on HSC-F cells, flow cytometry, replicate assays
T1 construct: whole, on cells; also called monkey CD3ε

[4] = molecular target: T1, monkey CD3 on HSC-F monkey T cells; test: competition with FITC-labeled FN18 tracer (5x10^-9 M) for binding to HSC-F monkey T cells, flow cytometry, 4 C

T1 sequence (Q95LI5 22-198): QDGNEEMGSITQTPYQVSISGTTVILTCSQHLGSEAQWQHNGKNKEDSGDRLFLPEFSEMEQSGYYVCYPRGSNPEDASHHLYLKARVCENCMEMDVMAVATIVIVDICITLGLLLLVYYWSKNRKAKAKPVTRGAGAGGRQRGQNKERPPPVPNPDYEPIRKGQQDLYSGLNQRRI

Molecule | % of 125I-UCHT1 bound to Jurkat cells [1] | % of 125I-UCHT1 bound to Jurkat cells [2] | further results
UCHT1 (antibody) | 80% | 0% | –
scUCHT1 (from UniProt P01871 106-453) (Fc fusion) | 80% | 0% | –
biscFv(C207) (other) DFVMSQSPSSLAVSVGERVTMSCKSSQSLLYFSNRKNYLAWYQQKPGQSPKLLINWASTRESGVPDRFTGSGSRTDFTLTISSVKAEDLAVYFCQQFYSYPPTFGGGTKLEIKGGGGSGGGGSGGGGSQVQLQQSEAELARPGASVKMSCKASGYTFTDYTIHWLRQKPGQGLDWIGYFNPSSGSTEYNRKFKDRTILTADRSSTTVYMQLSSLTSEDSAVYYCARKGEKLLGNRYWYFDVWGAGTSVTVSSGGGGSGGGGSGGGGSDFVMSQSPSSLAVSVGERVTMSCKSSQSLLYFSNRKNYLAWYQQKPGQSPKLLINWASTRESGVPDRFTGSGSRTDFTLTISSVKAEDLAVYFCQQFYSYPPTFGGGTKLEIKGGGGSGGGGSGGGGSQVQLQQSEAELARPGASVKMSCKASGYTFTDYTIHWLRQKPGQGLDWIGYFNPSSGSTEYNRKFKDRTILTADRSSTTVYMQLSSLTSEDSAVYYCARKGEKLLGNRYWYFDVWGAGTSVTVSS | – | – | ratio of concentrations at equal displacement, biscFv(C207)/scFv(C207) [3]: 2.5 fold
scFv(C207) (scFv) scFv: DFVMSQSPSSLAVSVGERVTMSCKSSQSLLYFSNRKNYLAWYQQKPGQSPKLLINWASTRESGVPDRFTGSGSRTDFTLTISSVKAEDLAVYFCQQFYSYPPTFGGGTKLEIKGGGGSGGGGSGGGGSQVQLQQSEAELARPGASVKMSCKASGYTFTDYTIHWLRQKPGQGLDWIGYFNPSSGSTEYNRKFKDRTILTADRSSTTVYMQLSSLTSEDSAVYYCARKGEKLLGNRYWYFDVWGAGTSVTVSS | – | – | IC50 (read off the curve) [4]: ~2 nM
Db(C207) (other, also called diabody of C207; diabody (C207)) DFVMSQSPSSLAVSVGERVTMSCKSSQSLLYFSNRKNYLAWYQQKPGQSPKLLINWASTRESGVPDRFTGSGSRTDFTLTISSVKAEDLAVYFCQQFYSYPPTFGGGTKLEIKGGGGSQVQLQQSEAELARPGASVKMSCKASGYTFTDYTIHWLRQKPGQGLDWIGYFNPSSGSTEYNRKFKDRTILTADRSSTTVYMQLSSLTSEDSAVYYCARKGEKLLGNRYWYFDVWGAGTSVTVSS | – | – | ratio of concentrations at equal displacement, Db(C207)/scFv(C207) [3]: 7 fold
